Columns and labels:
[1] = biological target: T1, aiPLA2 activity of recombinant human Prdx6 (Homo sapiens, UniProt P30041); assay: aiPLA2 (PLA2) activity of recombinant human Prdx6 in vitro, 3H-DPPC liposome substrate; type: biochemical; details: for Concentration of peptide for inhibition of aiPLA2 activity by 50%: concentration corrected for purity of the PIP preparation, Figure 2, n = 3; for Activity (aiPLA2 of recombinant hPrdx6), deletion from N-term: peptides deleted from N-terminus of 16-aa rat-derived SP-A peptide, no-peptide control 94.8, 3H-DPPC liposomes, 60 min; for Activity (aiPLA2 of recombinant hPrdx6), deletion from N-term / Activity (aiPLA2 of recombinant hPrdx6), human-derived peptides: one assay done in duplicate; for Activity (aiPLA2 of recombinant hPrdx6), human-derived peptides: deletions from 16-aa human-derived SP-A peptide, no-peptide control 92.0
T1 sequence (P30041 1-224): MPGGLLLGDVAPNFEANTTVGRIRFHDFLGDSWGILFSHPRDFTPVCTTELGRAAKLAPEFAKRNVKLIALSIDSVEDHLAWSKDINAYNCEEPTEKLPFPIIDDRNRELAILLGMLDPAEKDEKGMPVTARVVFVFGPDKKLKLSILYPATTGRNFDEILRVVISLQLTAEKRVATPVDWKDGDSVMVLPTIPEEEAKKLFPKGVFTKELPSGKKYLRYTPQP
Procedure: The PLA2 activity of Prdx6 was measured as described previously. The substrate was dipalmitoylphosphatidylcholine (DPPC) with ^3H-9,10-palmitate in the sn-2 position of DPPC incorporated into lung surfactant-like liposomes as described above; substrate was incubated with enzyme for 60 min and activity was calculated from the liberation of ^3H-palmitate as measured by scintillation counting.
The effect of the PIP peptides on the aiPLA2 activity of human recombinant Prdx6 was determined by in vitro assay; the effective concentration of inhibitor was corrected for purity of the PIP preparation. Saturating concentrations of all three peptides (PIP-1, PIP-2, PIP-3) inhibited aiPLA2 activity by ~70% (Figure 2). The basis for the remaining 30% of activity that was not inhibited is unclear.

[2] = biological target: T2, recombinant human peroxiredoxin 6 (Prdx6) (human) (UniProt P30041)
T2 sequence: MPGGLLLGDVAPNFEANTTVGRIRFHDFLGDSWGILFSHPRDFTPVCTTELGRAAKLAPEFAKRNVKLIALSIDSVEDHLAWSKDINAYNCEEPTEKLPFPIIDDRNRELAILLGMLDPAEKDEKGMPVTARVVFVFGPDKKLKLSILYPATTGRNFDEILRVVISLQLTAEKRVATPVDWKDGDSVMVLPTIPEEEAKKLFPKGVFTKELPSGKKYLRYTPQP

[3] = biological target: T2, recombinant human peroxiredoxin 6 (Prdx6) (human); remark: listed apart in the source
[4] = biological target: T2, recombinant human peroxiredoxin 6 (Prdx6) (human); remark: listed apart in the source
[5] = biological target: T3, mouse peroxiredoxin 6 (Prdx6), endogenous in lung homogenate (mouse (endogenous in lung)) (UniProt O08709)
T3 sequence: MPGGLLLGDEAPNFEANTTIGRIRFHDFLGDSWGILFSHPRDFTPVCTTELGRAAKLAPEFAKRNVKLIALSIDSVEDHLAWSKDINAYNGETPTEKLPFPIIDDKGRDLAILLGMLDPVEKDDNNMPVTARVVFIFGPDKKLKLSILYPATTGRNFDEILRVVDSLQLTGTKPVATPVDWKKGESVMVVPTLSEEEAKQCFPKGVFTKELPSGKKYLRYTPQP

[6] = biological target: T2, recombinant human peroxiredoxin 6 (Prdx6) (human); remark: listed apart in the source

Molecule	Activity (aiPLA2 of recombinant hPrdx6), deletion from N-term [1] [nmol/min/mg Prot.]	concentration of peptide for inhibition of aiPLA2 activity by 50% [3] [µg/mg Prdx6]	inhibition of the aiPLA2 activity of human recombinant Prdx6 in vitro against peptide concentration, up to saturating concentrations [3] [%]	molar stoichiometry of peptide to Prdx6 monomer worked out from the PIP to Prdx6 ratio at maximal inhibition of aiPLA2 activity (peptide to Prdx6 monomer, molar) [3]	other results
LYDIRHQIL [PIP-3]					Inhibition of aiPLA2 activity of human recombinant Prdx6 [1]: ~ 70%; Concentration of peptide for inhibition of aiPLA2 activity by 50% ([1]; recombinant human Prdx6): ~ 10 µg/mg Prdx6
LYEIKHQIL [PIP-1]	32.3				Inhibition of aiPLA2 activity at saturating concentrations of peptide ([1]; recombinant human Prdx6, Figure 2, mean + SEM, n = 3): ~ 70%; Concentration of peptide for inhibition of aiPLA2 activity by 50% ([1]; recombinant human Prdx6): ~ 8.3 µg/mg Prdx6
QTELYEIKHQIL [12-aa N-terminal deletion of rat 16-aa peptide]	31.5				
TLHDFRHQI [9-aa human peptide with C-terminal aa deleted]					Activity (aiPLA2 of recombinant hPrdx6), human-derived peptides [1]: 89.6 nmol/min/mg Prot.
TLHDFRHQIL [10-aa N-terminal deletion of human 16-aa peptide]					Activity (aiPLA2 of recombinant hPrdx6), human-derived peptides [1]: 31.5 nmol/min/mg Prot.
YEIKHQIL [8-aa N-terminal deletion of rat 16-aa peptide]	94.4				
LYEIKHQIL [PLA2-inhibitory peptide 1 (PIP-1), rat/mouse SP-A nine-aa peptide]		8.3	70	1.5	aiPLA2 activity of recombinant hPrdx6 with the peptide (no peptide: 94.8; scrambled peptide: 93.5) (nmol/min/mg Prot.) [2]: 32.3
LHDFRHQIL [PLA2-inhibitory peptide 2 (PIP-2), human SP-A nine-aa peptide]		6.6	70	1.5	aiPLA2 activity of recombinant hPrdx6 with the peptide (no peptide: 92.0) (nmol/min/mg Prot.) [4]: 29.9; inhibition of PLA2 activity at pH 4 without Ca2+ (aiPLA2) of wild type mouse lung homogenate after addition of PIP-2 to the assay [5]: 91%
LYDIRHQIL [PLA2-inhibitory peptide 3 (PIP-3), hybrid of PIP-1 and PIP-2]		10	70	1.5	inhibition of aiPLA2 activity by the hybrid nine-aa peptide [6]: 70%

From publication PMC6317155, “Identification of Small Peptides that Inhibit NADPH Oxidase (Nox2) Activation” (Antioxidants, 2018)
